# Experimental data published in the DeepSol protein solubility set.
# Test: soluble on expression in E. coli; label from the status in PepcDB or PDB records
row,Sequence,soluble on expression in E. coli
1,ALRGTVTDFSGFDGEADAEVLEKAMEGLGTDEDSILNLLTARSNAQRQQIAEEFETLFGRDLVNDMKSELTGKFEKLIVALMKPSRLYDAYELKHALKGAGTDEKVLTEIIASRTPEELRAIKQAYEEEYGSNLEDDVVGDTSGYYQRMLVVLLQANRDPDTAIDDAQVELDAQALFQAGELKWGTDEEEFITILGTRSVSHLRRVFDKYMTISGFQIEETIDRETSGNLENLLLAVVKSIRSIPAYLAETLYYAMKGAGTDDHTLIRVIVSRSEIDLFNIRKEFRKNFATSLYSMIKGDTSGDYKKALLLLSGGEDD,soluble
2,MSKFNLGIAKAGKTVNNEGAIAYSMSDKEKLVTQVLTSFFNENKFYGDNSQDILNTVRNVIKNEAAFVANLCIFARKEMHLRTISHVLVSELAKSTEGKEYVRRTLNEIIERPDDMTEVLAYYINTYGKPIPNSIKKGLADSFGKFDEYQLAKYNRKNAVKLKDILCLVHPKAKDEIQNDLWKRLLEDRLETPVTWETELSLKGNTKEVWERLIDENRLGYMAMMRNLRNIIKSGASNMDKVYEYLTDEERVLKNKQLPFRYYSAYKVLRNEGIGTSKIYDALEIAIKISTKNIDRLPGKTLIAADVSGSMNFPVSAKSDLTCAEVAVLMLSIANYICEESITMTFDDNLYACNLSTQNGIIANANSIKVNGGGTDITLPLRYLLDKRIFVDRIILLSDNEINAVYTYDTGRDKPKTCQALVERYKKWINPNVWVHAIDMQGYGTQQFKGQNVNIIAGWSERVFDFISSVEQGIDTLIGKISGYYFK,soluble
3,MIKMTQSRLHAAQNALAKLHEHRGNTFYPHFHLAPPAGWMNDPNGLIWFNDRYHAFYQHHPMSEHWGPMHWGHATSDDMIHWQHEPIALALGDDNDKDGCFSGSAVDDNGVLSLIYTGHVWLDGAGNDDAIREVQCLATSRDGIHFEKQGVILTPPEGIMHFRDPKVWREADTWWMVVGAKDPGNTGQILLYRGSSLREWAFDRVLAHADAGESYMWECPDFFSLGDQHYLMFSPQGMNAEGYSYRNRFQSGVIPGMWSPGRLFAQSGHFTELDNGHDFYAPQSFLAKDGRRIVIGWMDMWESPMPSKREGWAGCMTLARELSESNGKLLQRPVHEAESLRQQHQSVSPRRISNKYVLQENAQAVEIQLQWALKNSDAEHYGLQLGTGMRLYIDNQSERLILWRYYPHENLDGYRSIPLPQRDTLALRIFIDTSSVEVFINDGEAVMSSRIYPQPEERELSLYASHGVAVLQHGALWLLGLEHHHHHH,soluble
4,MMEGLDDGPDFLSEEDRGLKAINVDLQSDAALQVDISDALSERDRVNFTVHTKSSLPNFKQNEFSVVRQHEEFIWLHDSFVENEDYAGYIIPPAPPRPDFDASREKLQKLGEGEGSMTKEEFTKMKQELEAEYLAIFKKTVAMHEVFLCRVAAHPILRKDLNFHVFLEYNQDLSVRGKNKKEKLEDFFKNMVKSADGVIVSGVKDVDDFFEHERTFLLEYHNRVKDASAKSDRMTRSHKSAADDYNRIGSSLYALGTQDSTDICKFFLKVSELFDKTRKIEARVSADEDLKLSDLLKYYLRESQAAKDLLYRRSRSLVDYENANKALDKARAKNKDVLQAETSQQLCCQKFEKISESAKQELIDFKTRRVAAFRKNLVELAELELKHAKGNLQLLQNCLAVLNGDT,soluble
5,MQPTSITVASYNLRNANGGDSINGNGWGQRYPVIAQIVQYHDFDIFGTQECFIHQLKDMKEALPGYDYIGVGRDDGKEKGEHSAIFYRTDKFDVIEKGDFWLSETPDVPSKGWDAVLPRICSWGHFKCKDTGFEFLFFNLHMDHIGKKARVESAFLVQDKMKELGKGKELPAILTGDFNVDQTHQSYDAFVSKGVLCDSYEKAGFRYAINGTFNDFDPNSFTESRIDHIFVSPSFQVKRYGVLTDTYRSIVGKGEKKQANDCPEEIDIKTYQARTPSDHFPVKVELEFDQRQQKLEHHHHHH,soluble
6,QESVEDSLATVKVVLIPVGQEIVIPFKVDTILKYLKDHFSHLLGIPHSVLQIRYSGKILKNNETLVQHGVKPQEIVQVEIFSTNPDLYPVRRIDGLTDVSQIITV,soluble
7,QVQLLESGPELVEPGASVKVSCKASAYSITDFNIYWVKQSHGKNLEWIGGIDPHNGGPVYNQKFNGKATLTVDKSSSTAFMHLNSLTSEDSAVYYCAIFYGNFFDYWGPGTTVTVSSASTKGPSVFPLAPSSKSTSGGTAALGCLVKDYFPEPVTVSWNSGALTSGVHTFPAVLQSSGLYSLSSVVTVPSSSLGTQTYICNVNHKPSNTKVDKKVEPKSCDKTHT,soluble
8,MKEIKVIIAGPRGRMGHEAVLLMERTEHFNLVAAVDYKHGGEKISDLPGMPALHAPIYADLHTCLDEVEADVLLDLTTPEVGKQHVTLAVERGLRSVIGTTGFTEEELTRLTENAKEKAVGTIIAPNFAIGAVLMMKFSQMAAKYFQDVEVIELHHDQKLDAPSGTAVKTVELIRQNRESKQQGHPNEVEQLAGARGANVDGIHIHSVRLPGLIAHQEVMFGGDGQMLTVRHDSFNRASFMSGVKLSIETVMNLDHLVYGLENIID,not soluble
9,AMSNNKIKRKDASPEQEAIESFTSLTKCDPKVSRKYLQRNHWNINYALNDYYDKEIGTFTDEVSTVAHPPVYPKELTQVFEHYINNNLFDIDSLVKFIEELGYNLEDLATLCLAHLLGYKKLEEPLKREDFLSTWFMQGCSTISDMQECIKTLDVKLHEDLQYFTQIYNYAFNLILDPNRKDIDTDEGIQYWKLFFQPEYPVRMEPDLLEAWFRFLRDEGKTTISKDTWRMLLLFFKRYPTIQKIISDYDETAAWPFIIDEFYECLQDQQ,soluble
10,SNAMKKTLILGATPETNRYAYLAAERLKSHGHEFIPVGRKKGEVLGKTIINERPVIEGVDTVTLYINPQNQLSEYNYILSLKPKRVIFNPGTENEELEEILSENGIEPVIGCTLVMLSAGTF,soluble
11,MNEDLTNSTEYKRYGHDYAKYPRRIAEELQHYGGNSFANFFRDEGVLYKEILCDACDHLKVNYNEESATSLIEQNMLSKLLKDSLEKMSRREIKELCNELGMTNIDKVIGENKQVLIASTLTLFKAGGSHSYALAVSVADAMVRQTLGHVMWWVK,not soluble
12,MYNITLPVLGTRLKQIREHVGYSQAQLAEQLNCKQNAISNLELGKGGSLKLLFQVLNFYSNYVFIDLIFSEKFYLISNTEEDEAQKANYNSVIIEIIRQSEKNYENAMSNAKKELEANLQKAINLLQP,not soluble
13,MNFGAYGKITDVEFVSDSEGPLHFCIITFADSRSVDVLLTKSIYIRDVLMFTRRAVLKESVKIAEHKIKEQEQQNLVQLPPNHTAYLTPSRPVTSVHASSSASSNHYDPSAAAGYAPLYHQPPESDPLSQCGYGPRKW,not soluble
14,GVLPVEKCNLEDSACMTSAFQQALPTFVAGLPDHGVEVMDVLDLDDFAFDLSGLQFTLKEGKLKGLKGAVIDNVKWDLKKKNIEVDFHLDATVKGHYTAGGRILILPITGDGQMKLKLKNIHIHLVVSYEMEKDAEGVDHVIFKKYTVTFDVKDNAQFGLTNLFNGNKELSDTMLTFLNQNWKQVSEEFGKPVMEAAAKKIFKNIKHFLAKVPIAEIANV,soluble
15,MVTEFAKEMIKNADSCGAQDIYVIPRQDNYELYMRVGQERRLIDVYRPDFMASLIGHFKFVAGMMVGEKRRSQLGSCDYDCGDGHLVSLRLSTVGDYRGLESLVIRILH,not soluble
16,SNRHLCKECFKKDIERRAKKVLGKDIIRNNVKIGIGISGGKDSLVMAYILKELFKHIPNAKLICFFVDEGIKGFRNIAEKYVKEFCKEYNLDLKIIKFEDEIGYTLDEIVKNDYLSKLNIGKPCSFCGVVRRYLLNKHALKEGCDYLAIGHNLDDFCQTILMNYVEGNIKNIIQFGKEFEGGGFVKRIKPLKLIPEEEVKLYAEINNIKYQREPC,not soluble
17,MDFKTVMQELEALGKERTKKIYISNGAHEPVFGVATGAMKPIAKKIKLNQELAEELYATGNYDAMYFAGIIADPKAMSESDFDRWIDGAYFYMLSDYVVAVTLSESNIAQDVADKWIASGDELKMSAGWSCYCWLLGNRKDNAFSESKISDMLEMVKDTIHHSPERTKSAMNNFLNTVAISYVPLHEKAVEIAKEVGIVEVKRDNKKSSLLNASESIQKELDRGRLGFKRKYVRC,soluble
18,KILAVTACPTGIAHTFMAADALKEKAKELGVEIKVETNGSSGIKHKLTAQEIEDAPAIIVAADKQVEMERFKGKRVLQVPVTAGIRRPQELIEKAMNQDAPIY,soluble
19,MGSDKIHHHHHHAELPLEEGVSVRFEIKRDGVMSRAPGDAALSVNRILILPFRKTDEASSNDAANFVPEYSAARQLDVNSFPAVVTMLTLSAASTYQLLVIGYNRSDYDFASGGGATKRFNIGSTGNPATLANLYLQPVNPTVVPEFFSCFGNGYRGTTLVGPIFKPSQINYVTGTLKRLVSGFTLEVTNVPAYVNSMTLIAEQLVTATRATDGTALTWQTAGDGGTKTLATQAPVSGKVSFNQFLLAIPDSRKTLFYLDVSYGIFTERYTVKLPDTPGVVSGNRIIFTPNHWVKVTGSYANINIGFTLAGNINLDDNAWDGLQ,not soluble
20,MGSDKIHHHHHHMVPHLITALNGPLLELEKKILDATPSIERWFRLEWQEHTPPFYCSVDLRNAGFKLAPVDTNLFPGGFNNLAPEMLPLAVQAAMAAIEKICPDAKNLLLIPERHTRNMFYLQNVARLSLIMRQAGLNVRLGSLSEEITEPTPIELPDGQTLVVEPLARLGTKDRRLGLKDFDPCSILLNNDLSAGIPPILENINEQYLLPPLHAGWSTRRKSSHFAAYDEVAKKFAKLIDIDQWMVNPYFARCSGVNFHERIGEEELADSVEAVLKKIAKKYREYGIKETPYVVVKADAGTYGMGIMTVRDPSEVKGLNRKERNKMSVVKEGLEVSDVIIQEGVHTFEKVNEAVAEPVVYMIDRYVVGGFYRVHTGRGNDENLNAPGMHFVPLAFAPNGIPDSHAKPGAAVPNRFYMYGVVARLALLAASIELEKTDPNPIL,not soluble
21,MIKAILIFNNHGKPRLCKFYQHYSEDTQQQIIRETFHLVSKRDENVCNFLEGGLLIGGSDNKLIYRHYATLYFVFCVDSSESELGILDLIQVFVETLDKCFENVCELDLIFHVDKVHNILAEMVMGGMVLETNMNEIVTQIDA,soluble
22,MIVLGLEGTAHTISCGIIDESRILAMESSMYRPKTGGIRPLDAAVHHSEVIDTVISRALEKAKISIHDIDLIGFSMGPGLAPSLRVTATAARTISVLTGKPIIGVNHPLGHIEIGRRVTGAIDPVMLYVSGGNTQVIAHVNGRYRVLGETLDIGIGNMIDKFAREAGIPFPGGPEIEKLAMKGTKLLDLPYSVKGMDTAFSGILTAALQYLKTGQAIEDISYSIQETAFAMLVEVLERALYVSGKDEILMAGGVALNRRLRDMVTNMAREAGIRSYLTDREYCMDNGIMIAQAALLMYKSGVRMSVEETAVNPRFRIDEVDAPWITDASRKDYGKAGAESRIEEVSFHGRPAIRKVRISKSYRNSDLDKKIRYERMRNEFTILRKLKEAGVNSPVVYDFDPFSMSITMQKIPGRMMSAELNEGRTDFLNELGIMIAKMHRAGIAHGDLTVNNIIVNDSVFIIDPSMGKVNAEIEDMAVDIYALEDSIKGLGLDSGSVIGQMLKSYRNNFNLADDVLETVSAIRRRHRYV,soluble
23,MSLKIVIIGASFAGISAAIASRKKYPQAEISLIDKQATVGYLSGGLSAYFNHTINELHEARYITEEELRRQKIQLLLNREVVAMDVENQLIAWTRKEEQQWYSYDKLILATGASQFSTQIRGSQTEKLLKYKFLSGALAAVPLLENSQTVAVIGAGPIGMEAIDFLVKMKKTVHVFESLENLLPKYFDKEMVAEVQKSLEKQAVIFHFEETVLGIEETANGIVLETSEQEISCDSGIFALNLHPQLAYLDKKIQRNLDQTIAVDAYLQTSVPNVFAIGDCISVMNEPVAETFYAPLVNNAVRTGLVVANNLEEKTHRFIGSLRTMGTKVGDYYLASTGLTETEGLFFPQTLASIIVRQPAPPLQHGTEILGKLIYDKVTQRVLGAQLCSKNNCLEKINTLALSIQTGQTLTDLLQKDYFYQPSLTNIYDITNLMGASAYWRENDEGHHHHHH,soluble
